Literature values as cited in article PMC5540906.
“And” between values parts separate entries of the source, which are not always exact repeats. Identical values can stand only once.

Legend:
[1] = molecular target: DnaK (Thermus thermophilus) (UniProt Q72IK5)
[2] = molecular target: ClpP tetradecamer (Escherichia coli) (UniProt P0A6G7); assay: activity measurements
Chain of UniProt P0A6G7 (P0A6G7 15-207): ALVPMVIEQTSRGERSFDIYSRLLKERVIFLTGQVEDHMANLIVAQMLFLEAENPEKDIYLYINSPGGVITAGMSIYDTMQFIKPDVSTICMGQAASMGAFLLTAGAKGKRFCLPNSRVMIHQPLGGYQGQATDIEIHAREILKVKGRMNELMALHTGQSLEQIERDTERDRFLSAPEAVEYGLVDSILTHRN

Chain of UniProt Q72IK5 (Q72IK5 whole entry): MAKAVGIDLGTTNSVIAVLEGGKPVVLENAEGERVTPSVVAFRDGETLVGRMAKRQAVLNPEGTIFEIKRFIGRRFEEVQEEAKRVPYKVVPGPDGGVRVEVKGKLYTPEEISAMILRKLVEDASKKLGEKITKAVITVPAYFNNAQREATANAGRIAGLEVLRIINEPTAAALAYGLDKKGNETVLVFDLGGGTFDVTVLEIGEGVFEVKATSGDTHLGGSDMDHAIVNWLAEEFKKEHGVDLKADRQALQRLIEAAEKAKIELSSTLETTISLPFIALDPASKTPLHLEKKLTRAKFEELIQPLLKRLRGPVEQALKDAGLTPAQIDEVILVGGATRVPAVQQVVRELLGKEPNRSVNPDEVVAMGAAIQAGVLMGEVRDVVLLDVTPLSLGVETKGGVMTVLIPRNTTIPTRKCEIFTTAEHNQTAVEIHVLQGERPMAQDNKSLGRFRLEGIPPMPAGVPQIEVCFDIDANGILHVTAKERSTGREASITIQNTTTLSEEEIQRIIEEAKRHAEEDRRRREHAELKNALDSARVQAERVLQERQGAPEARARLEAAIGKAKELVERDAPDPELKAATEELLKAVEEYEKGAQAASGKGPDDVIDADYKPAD

| Kd [1] | Kd [2] [µM] | Substance |
| --- | --- | --- |
| 17 µM and 25 µM |  | ClpB (from UniProt Q72IK9) |
|  | 0.004 | ClpA hexamer (from UniProt P0ABH9) |
